Source: patent US20170198026A1, “Compositions And Methods For Treating Tumors And Immune Based Inflammatory Diseases” (The Schepens Eye Research Institute, Inc., priority 2014, published 2017)
“Also recorded” adds a separate entry of the source.

T1: EMR2 (Homo sapiens, UniProt Q9UHX3)
T1 construct: endogenous in cells; host or cells: human peripheral blood monocytes (from Leukopac PBMC) cultured with TGFb2 and tetanus toxoid, giving tolerogenic APC
T1 sequence (Q9UHX3 24-823): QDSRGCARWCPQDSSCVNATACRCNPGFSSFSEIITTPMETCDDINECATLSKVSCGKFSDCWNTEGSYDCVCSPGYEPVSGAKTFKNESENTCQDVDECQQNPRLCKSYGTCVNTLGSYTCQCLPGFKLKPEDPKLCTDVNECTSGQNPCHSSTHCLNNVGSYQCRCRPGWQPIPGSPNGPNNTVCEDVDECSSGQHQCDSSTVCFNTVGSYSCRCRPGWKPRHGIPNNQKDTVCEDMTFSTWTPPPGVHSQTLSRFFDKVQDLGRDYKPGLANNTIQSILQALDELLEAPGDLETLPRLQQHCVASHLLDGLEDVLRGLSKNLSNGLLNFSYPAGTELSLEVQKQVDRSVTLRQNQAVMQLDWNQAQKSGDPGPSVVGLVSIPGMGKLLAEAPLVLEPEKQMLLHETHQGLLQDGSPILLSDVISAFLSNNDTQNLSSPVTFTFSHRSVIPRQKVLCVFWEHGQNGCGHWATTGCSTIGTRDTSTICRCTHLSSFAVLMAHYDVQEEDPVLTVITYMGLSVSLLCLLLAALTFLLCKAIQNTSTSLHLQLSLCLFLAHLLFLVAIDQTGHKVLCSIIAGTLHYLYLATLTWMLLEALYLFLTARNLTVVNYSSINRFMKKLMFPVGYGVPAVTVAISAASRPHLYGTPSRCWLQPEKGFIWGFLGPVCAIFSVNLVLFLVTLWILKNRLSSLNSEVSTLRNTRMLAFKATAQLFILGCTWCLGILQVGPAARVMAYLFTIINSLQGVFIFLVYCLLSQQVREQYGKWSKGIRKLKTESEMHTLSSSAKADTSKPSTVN


Columns and labels:
[1] = biological target: T1, EMR2; assay: Blocking EMR2 ligand binding with soluble chondroitin sulfate in tolerogenic APC / lymphocyte co-culture; type: cell-based
Experimental: Monocytes were cultured as outlined above. Soluble chondroitin sulfate from shark cartilage (Sigma-Aldrich, St. Louis, Mo.) was used to bind to EMR and block signaling at a concentration of 1.5 mg/mL. CD25 and FoxP3 expression as well as intracellular cytokine functionality was tested.
To mediate cell interactions, EMR2 binds to chondroitin sulfate GAGs on the opposing cell. To block EMR2 signaling and the induction of T regulatory cells, we added soluble chondroitin sulfate to the cell culture. Saturating the culture with soluble chondroitin sulfate competitively binds up available EMR2 molecules and subsequently block signaling from the APC to the lymphocytes.
We treated APC with soluble chondroitin sulfate (1.5 mg/mL) in the same conditions listed above. By using a dose curve, we found 1.5 mg/mL was the ideal concentration for saturating EMR2 receptors. Post co-culture with lymphocytes, we repeated surface and intracellular staining of lymphocytes to check for differences in FoxP3+ cells (FIG. 9).

[2] = tested on: human APCs; assay: Surface markers on human tolerogenic APC by flow cytometry; type: cell-based
Experimental: Isolated cells were plated on sterile petri dishes (BD Falcon, Franklin Lakes, N.J.) in serum-free culture medium, RPMI-1640 supplemented with Glutamax (Invitrogen, Carlsbad, Calif.), 1 mM sodium pyruvate, 0.1 mM non-essential amino acids, 100 U/mL Penicillin/Streptomycin, 10 mM HEPES (Invitrogen, Carlsbad, Calif.), Insulin/Transferrin/Selenium (ITS) (Invitrogen, Carlsbad, Calif.), and 0.1% BSA (Sigma-Aldrich, St. Louis, Mo.). Cells were cultured with or without 1 ng/mL porcine TGFβ2 (R&D Systems, Minneapolis, Minn.) for at least six hours. Cells were then pulsed with or without tetanus toxoid (TT) antigen (List Biological Laboratories, Campbell, Calif.) in serum-free media and incubated overnight in 37° C., 5% CO2.
APC were analyzed by flow cytometry to confirm the expression of myeloid and tolerogenic markers. CD14 (constitutive on monocyte-derived cells), Immunoglobulin-like transcript 3 (ILT3, cell surface immunoglobulin that co-ligates to APC stimulatory receptors to downregulate activation signals (Cella et al., 1997)), Programmed cell death 1 ligand 1 (PD-L1, well-known immunosuppressive ligand), and EMR2 were measured. Monoclonal antibodies to ILT3 and PD-L1 were purchased from eBioscience (San Diego, Calif.) and the monoclonal antibody to EMR2 was purchased from R&D Systems (Minneapolis, Minn.).

[3] = both TGFβ2 (1 ng/mL) and antigen (TT) compared to antigen or TGFβ2 alone

| Molecule | CD25+ FoxP3+ cell populations (Treg production) ([1]; 1.5 mg/mL soluble chondroitin sulfate, APC treated with antigen and TGFβ, CD4+ gated lymphocytes post co-culture) | ideal concentration for saturating EMR2 receptors ([1]; dose curve, APC culture) [mg/mL] | EMR2 expression on APC ([2]; TGFβ2 (1 ng/mL) and antigen (TT)) | ILT3 expression on APC [2, 3] | PD-L1 expression on APC [2, 3] |
| --- | --- | --- | --- | --- | --- |
| chondroitin sulfate [soluble chondroitin sulfate] | no increase; also recorded: successfully blocks Treg production | 1.5 |  |  |  |
| TGFβ2: porcine TGFβ2 (R&D Systems), aqueous humor immunosuppressive factor used to generate tolerogenic APC (protein, UniProt P09858 303-435, looked up) Transforming growth factor …: ALDAAYCFRNVQDNCCLRPLYIDFKRDLGWKWIHEPKGYNANFCAGACPYLWSSDTQHSRVLSLYNTINPEASASPCCVSQDLEPLTILYYIGKTPKIEQLSNMIVKSCKCSKTKLAAFARLYHSHSNLGSET |  |  | also upregulated | significantly (p≦0.05) upregulated | significantly (p≦0.05) upregulated |
